Laboratory results published in US9067983B2, “Anti-inflammatory antibodies and uses therefor” (DecImmune Therapeutics, Inc., priority 2009, dated 2015).

Tests used:
[1] = target: N2 peptide (N2 region of non-muscle myosin II heavy chain) (Mus musculus, UniProt Q61879); experiment: binding of hybridoma antibodies to the N2 peptide in vitro
Method: (§1) A panel of mouse hybridomas were prepared to identify the N2 region of non-muscle myosin II heavy chain. Thus, mice were immunized with the N2 peptide (Ac-LMKNMDPLNDNV (SEQ ID NO: 33)) coupled to a carrier protein (KLH). This region (N2) is highly conserved and identical in mouse and man. […] 12A6 is a IgG2b isotype. Its VH most closely matches the germ line gene 3609.11.169 sequence paired with DH: DSP2/DFL16.1 and its light chain is a V kappa 8-27 with JK1. 21G6 is an IgG1 isotype with its VH matching J558.35; DH: DSP2.6/DSP2.4/DSP2.3 and JH: JH3. Its light chain is V kappa hf24 and JK4.

N2 self-peptide = experiment: binding of anti-N2 antibody in vivo in heart after LAD occlusion and reperfusion (confocal microscopy); parameters: species or system mouse; conditions: B6 mice
Method: Specificity of the anti-N2 antibody. B6 mice were injected i.v. with fluorescently-labeled anti-N2 antibody (12A6) and anti-CD31 antibody prior to 60 min LAD occlusion and 30 min reperfusion. Following treatment, hearts were collected, fixed, and analyzed by confocal microscopy. The area at risk (left ventricle) was compared with the non-risk area (right ventricle). Quantification of the individual antibody staining as well as the merged images both in the area at risk and non-risk area is shown in FIG. 5.

B6 mice = experiment: murine myocardial infarction model (1 h LAD occlusion, 24 h reperfusion); type: in vivo, mouse; conditions: pretreatment with 100 ugs of Fab'2 fragment (Fc removed)
Method: as §1
B6 mice were subjected to 1 h LAD occlusion followed by 24 h reperfusion. […] Following reperfusion, both serum troponin-I levels (A) and mouse IgM deposition (B) were analyzed and statistical significance for each was evaluated by Student's t test (FIG. 3).
[…] Serum troponin-I levels were measured after 24 h reperfusion.

binding to the N2 peptide in vitro [1]: bind the N2 peptide
B1: 21G6: murine anti-N2 IgG1 produced by hybridoma PTA-9393; VH SEQ ID NO: 14, VL SEQ ID NO: 20 (antibody, listed as Mus sp., V domains shown)
VH: QVQLQESGAELVKPGASVKLSCKASGYTFTSYYMYWVKQRPGQGLEWIGGINPSNGGTNFNEKFKSKATLTVDKSSSTAYMQLSSLTSEDSAVYYCTRWGYDREWFAYWGQGTLVTVSA
VL: DIVMTQAAPSVPVTPGESVSISCRSSKSLLHSNGNTYLYWFLQRPGQSPQVLIYRMSNLASGVPDRFSGSGSGTAFTLRISRVEAEDVGVYYCMQHLEYPFTFGSGTKLEIKR
binding to the N2 self-peptide in vivo (N2 self-peptide): bind the N2 peptide
ischemia reperfusion injury (B6 mice): blocks ischemia reperfusion injury
